In assay [1] the target is ACKR3 wild type, expressed in cells for the NanoBiT β-arrestin recruitment assay (UniProt P25106).
Assay [2] concerns the target ACKR3 wild type, Tango assay construct (UniProt P25106).
For assay [3], the target named is ACKR3 wild type, expressed in cells for the NanoBiT β-arrestin recruitment assay (UniProt P25106 1-362). Put plainly: cell-based or functional assay.
Chain of ACKR3 wild type, expressed in cells for the NanoBiT β-arrestin recruitment assay (UniProt P25106 1-362) (P25106 whole entry): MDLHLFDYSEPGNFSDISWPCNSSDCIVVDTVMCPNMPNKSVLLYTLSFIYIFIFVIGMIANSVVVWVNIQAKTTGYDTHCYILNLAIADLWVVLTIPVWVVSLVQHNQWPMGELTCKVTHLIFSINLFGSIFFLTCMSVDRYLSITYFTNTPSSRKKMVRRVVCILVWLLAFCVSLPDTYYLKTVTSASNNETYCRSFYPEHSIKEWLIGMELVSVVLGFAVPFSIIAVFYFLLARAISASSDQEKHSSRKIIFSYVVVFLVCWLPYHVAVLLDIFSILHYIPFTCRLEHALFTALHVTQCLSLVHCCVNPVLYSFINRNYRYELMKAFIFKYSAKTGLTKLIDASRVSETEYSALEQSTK

Chain of CXCL12 (P48061 22-93): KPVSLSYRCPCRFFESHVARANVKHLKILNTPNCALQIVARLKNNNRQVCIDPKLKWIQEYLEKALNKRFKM
Chain of ACKR3 wild type, expressed in cells for the NanoBiT β-arrestin recruitment assay (UniProt P25106) (P25106 whole entry): as the sequence (P25106 whole entry) above
Chain of ACKR3 wild type, Tango assay construct (P25106 whole entry): as above

Turning to “CXCL12 (from UniProt P48061 22-93) (ligand)”, the β-arrestin-2 recruitment to ACKR3, NanoBiT, EC50 in assay [1] stood at 0.75 nM. The β-arrestin-2 recruitment to ACKR3, Tango assay, EC50 in assay [2] was 3.9 nM.

On to FGGFMRRK [LIH383], for which the “β-arrestin-2 recruitment to ACKR3, NanoBiT, EC50” value in assay [3] was found to be 4.8 nM.

(Values after paper PMC9574477 (Science (New York, N.Y.), 2022).)
